Test results published in US20150056219A1 (published 2015).
Positions count from the first letter of the chain named.

T1: mouse HVEM (mouse, UniProt Q80WM9 39-206)
T1 chain: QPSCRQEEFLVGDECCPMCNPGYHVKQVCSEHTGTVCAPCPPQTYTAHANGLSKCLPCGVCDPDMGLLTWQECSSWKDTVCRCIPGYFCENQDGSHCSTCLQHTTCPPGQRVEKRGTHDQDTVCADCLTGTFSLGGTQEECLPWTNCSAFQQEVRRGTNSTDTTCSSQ

T2: human HVEM (human, UniProt Q92956 39-202)
T2 chain: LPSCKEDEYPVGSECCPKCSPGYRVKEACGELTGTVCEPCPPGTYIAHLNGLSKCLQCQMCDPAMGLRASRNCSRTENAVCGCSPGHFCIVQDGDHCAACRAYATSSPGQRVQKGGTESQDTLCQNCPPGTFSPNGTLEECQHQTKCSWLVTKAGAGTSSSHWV

B1: mHVEM (receptor)
chain: T1 chain
B2: mLTbR (receptor)
chain: QLVPPYRIENQTCWDQDKEYYEPMHDVCCSRCPPGEFVFAVCSRSQDTVCKTCPHNSYNEHWNHLSTCQLCRPCDIVLGFEEVAPCTSDRKAECRCQPGMSCVYLDNECVHCEEERLVLCQPGTEAEVTDEIMDTDVNCVPCKPGHFQNTSSPRARCQPHTRCEIQGLVEAAPGTSYSDTICKNPPEPGAMLL
B3: hHVEM (receptor)
chain: T2 chain
B4: hLTbR (receptor)
chain: QAVPPYASENQTCRDQEKEYYEPQHRICCSRCPPGTYVSAKCSRIRDTVCATCAENSYNEHWNYLTICQLCRPCDPVMGLEEIAPCTSKRKTQCRCQPGMFCAAWALECTHCELLSDCPPGTEAELKDEVGKGNNHCVPCKAGHFQNTSSPSARCQPHTRCENQGLVEAAPGTAQSDTTCKNPLEPLPPEMSGTMLM
B5: wt (ligand)
chain: LIQERRSHEVNPAAHLTGANSSLTGSGGPLLWETQLGLAFLRGLSYHDGALVVTKAGYYYIYSKVQLGGVGCPLGLASTITHGLYKRTPRYPEELELLVSQQSPCGRATSSSRVWWDSSFLGGVVHLEAGEKVVVRVLDERLVRLRDGTRSYFGAFMV
B6: m4-16 (protein)
chain: RRSHEVNPAAHLTGANFSLTGSGGPLLWETQLGQAFLRGLSYHDGALVVTKAGYYYIYSKVQLGGVGCPLGLASTITHGLYKRTPRYPEELELLVSQQSPCGRATSSSRVWWDSSFLGGVVHLEAGEEVVVRVLDDRLVRLRDGTRSYFGAFMV
B7: m4-14 (protein)
chain: B6 chain with F17S, Q34L, R38S, G64R, D135G, D136E
B8: m4-7 (protein)
chain: B6 chain with F17S, L19S, Q34L, G64R, D136E
B9: wild type human LIGHT (ligand)
chain: B5 chain

These binders were tested against m4-52.
B1 showed a Kd of 2.44 nM. With B2 the Kd was 0.68 nM. B3 was tested, and the Kd was 1.42 nM. B4 showed a Kd of 1.12 nM.

The binders below were run against DcR3.
B5 gave a Kd of 0.6 nM.

Target: T1, mouse HVEM
For B6, the Kd was 2.22 nM. With B7 the Kd was 0.29 nM. For B8, the Kd was 5.03 nM.

Target: T2, human HVEM
B6 gave a Kd of 2.24 nM. Work on B7 yielded a Kd of 38.5 nM. Work on B8 yielded a Kd of 0.92 nM.

These binders were tested against mouse LTβR (mouse, UniProt P50284 31-223).
B6 showed a Kd of 0.192 nM. In the case of B7, the Kd is reported as 0.094 nM. B8 was tested, and the Kd was 0.118 nM.

These binders were tested against human LTβR (human, UniProt P36941 31-227).
B6 was tested, and the Kd was 0.13 nM. For B7, the Kd was 0.16 nM. With B8 the Kd was 0.157 nM. With B9 the Kd was 1.3 nM.
